Biological target: DNA polymerase β polymerase domain with the V303M mutation (UniProt P06766 88-335, V303M, [methyl-13C]methionine labelled)
Experiment: NMR

ratio KD(pol β•X1NTDred)/KD(pol β•X1NTDox): 25.2
B1: oxidized form of the XRCC1 N-terminal domain, XRCC1(1-155), containing the C12-C20 disulfide bond (domain or fragment, human, UniProt P18887 2-155, looked up)
chain: PEIRLRHVVSCSSQDSTHCAENLLKADTYRKWRAAKAGEKTISVVLQLEKEEQIHSVDIGNDGSAFVEVLVGSSAGGAGEQDYEVLLVTSSFMSPSESRSGSNPNRVRMFGPDKLVRAAAEKRWDRVKIVCSQPYSKDSPFGLSFVRFHSPPDK
modifications: Cys12-Cys20 disulfide bond; N-terminal carbimate (CO2) adduct on Pro2; U-[15N] labelled
